What all share (experiment): NMR
The target in one test is T1, CCR3 peptide Su16 8-23 (Homo sapiens, UniProt P51677).
T1 chain: VETFGTTS[sY]YDDVGLL

Another test addresses T2, CCR3 peptide Su0 8-23 (Homo sapiens, UniProt P51677).
T2 chain: VETFGTTSYYDDVGLL

A further test concerns the target T3, CCR3 peptide Su17 8-23 (Homo sapiens, UniProt P51677).
T3 chain: VETFGTTSY[sY]DDVGLL

Where no end group is shown, it is not given here. [ ]: non-standard residue; d: D form. sY = N[C@@H](Cc1ccc(OS(=O)(=O)O)cc1)C(=O)O

B1: eotaxin (protein)
chain: not shown
Usually Kd stands for the constant that tells how readily two partners part at equilibrium. As for B1, the Kd was below 5 µM in the test with CCR3 peptide Su16 8-23, 140 µM with CCR3 peptide Su0 8-23 and 22 µM with CCR3 peptide Su17 8-23.
